Tested on: embryonic mouse cortical cells
Assay: Functional neuronal maturation of cortical networks on microelectrode arrays (MEA recording, chronic treatment)
Type: cell-based
Conditions: cortical networks on MEAs
Procedure: Cortical cells were grown on multi-well microelectrode arrays (MEAs) and treated with 10 different experimental series, including different combinations of test agents (PE, SM, LF and DHA) and the activity was recoded at 4 different time points during the 4 weeks of functional neuronal maturation Cells growing on glass slides were treated in parallel for morphological and cell population analysis. These experiments aimed to elucidate whether the test compounds affect the functional and morphological neuronal maturation […] (see FIG. 1). […]
Primary cell culture for MEA recordings: In brief, frontal cortex tissue was harvested from embryonic day […] NMRI mice. […] Cultures on MEAs were incubated at 37° C. in a 10% CO2 atmosphere until ready for use, which usually is four weeks to three months after seeding. […]
Multichannel Recording: After establishing a stable activity pattern after 4 weeks, the neuronal networks on MEA chips are employed for substance testing. […] The signals routinely recorded by these neurochips are located in a range of 15-1800 […] . […]

B1: lactoferrin (protein, UniProt P24627 20-708, looked up)
Lactotransferrin: APRKNVRWCTISQPEWFKCRRWQWRMKKLGAPSITCVRRAFALECIRAIAEKKADAVTLDGGMVFEAGRDPYKLRPVAAEIYGTKESPQTHYYAVAVVKKGSNFQLDQLQGRKSCHTGLGRSAGWIIPMGILRPYLSWTESLEPLQGAVAKFFSASCVPCIDRQAYPNLCQLCKGEGENQCACSSREPYFGYSGAFKCLQDGAGDVAFVKETTVFENLPEKADRDQYELLCLNNSRAPVDAFKECHLAQVPSHAVVARSVDGKEDLIWKLLSKAQEKFGKNKSRSFQLFGSPPGQRDLLFKDSALGFLRIPSKVDSALYLGSRYLTTLKNLRETAEEVKARYTRVVWCAVGPEEQKKCQQWSQQSGQNVTCATASTTDDCIVLVLKGEADALNLDGGYIYTAGKCGLVPVLAENRKSSKHSSLDCVLRPTEGYLAVAVVKKANEGLTWNSLKDKKSCHTAVDRTAGWNIPMGLIVNQTGSCAFDEFFSQSCAPGADPKSRLCALCAGDDQGLDKCVPNSKEKYYGYTGAFRCLAEDVGDVAFVKNDTVWENTNGESTADWAKNLNREDFRLLCLDGTRKPVTEAQSCHLAVAPNHAVVSRSDRAAHVKQVLLHQQALFGKNGKNCPDKFCLFKSETKNLLFNDNTECLAKLGGRPTYEEYLGTEYVTAIANLKKCSTSPLLEACAFLTR
acute effect on neuronal network activity in vitro: acutely affect neuronal network activity
